Source: the nanobody polyreactivity screen of Harvey et al. (2022)

Assay: yeast display, Sf9 membrane polyspecificity reagent, FACS + sequencing; frameworks hold sequencing errors
Outline: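 Genes from sorted yeast were amplified by colony PCR, read by MiSeq 2 × 250 sequencing and filtered on CDR length. These cells carried a synthetic nanobody library in Saccharomyces cerevisiae BJ5465 and were sorted by FACS into low and high (top ~1%) gates on anti-HA and streptavidin fluorescence. Polyreactivity is labelled according to the gate of origin.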
In the case of “QVQLVESGGGLVQAGGSLRLSCAASGRTVPGYVMGWYRQARGKERELVAAITSGGSTNYADSVKGRFTISRDNAKNTVYLQMNSLKPEDTAVNYCNADRNRWPWSVFTSEYWGQGTQVTVSS”, the “polyreactivity (PSR sort gate)” value is reported as “low polyreactivity”.
For “QVQLVESGGGLVQAGGSLRLSCAASGRTVSNYAMGWSRQAPGKERELVSAISTGGTSTYYADSVKGRFTISRDYAKNTVYLQMNSLKPEDTAVYYCIAVGGWVTHWLLREGDYWGQGTQVTVSS”, the “polyreactivity (PSR sort gate)” value was “low polyreactivity”.
For “QVQLVESGGGLVQAGGSLRLSCAASGRTYRYYAMGWYRQAPGKERELVAAITASTGRTYYADSVKGRFTISRDNAKNSVYLQMNRLKPEDTAVYYCDARQSSYRYPGSYEYWGQGTQVTVSS”, the “polyreactivity (PSR sort gate)” value was “high polyreactivity”.
With “QVQLVESGGGLVQAGGSLRLSCAASGRTYSQNAMGWYRQSPGKERELVAAIRRGGSTNYADSVKGRFTISRDNAKNTVYLQMNSLKPEDSAVYDCAADLRRNGWGFDYWGLGTQVTVSS” the “polyreactivity (PSR sort gate)” value was “high polyreactivity”.
For “QVQLVESGGGLVQAGGSLRLSCAASGRTYSYYAMGSYRQAPGKERELVAAITTSGGSTYYADSVKGRFTISRDNAKNTVYLQMNSLKPEDTAVYYCNALSSGVYLYDYWGQGTQVTVSS”, the “polyreactivity (PSR sort gate)” value was “high polyreactivity”.
With “QVQLVESGGGLVQAGGSLRLSCAASGRTYTRYALGWYRQAPGKERELVAAISGGGGSTYYADSVKGRFTISRDNAKNTVYLQMNSLKPEDTAVYYCNAAARGSSFDYWGQGTQVTVSS” the “polyreactivity (PSR sort gate)” value was “low polyreactivity”.
In the case of “QVQLVESGGGLVQAGGSLRLSCAASGRTYWYYVMGWYRQAPGTERELVAAISSSGGRTYYADSVKGRFTISRDNAKNTVYLQMNSLKPEDTAVYYCNVDAWYPYQGFLVGYYYWGQGTQVTVSS”, the “polyreactivity (PSR sort gate)” value is reported as “low polyreactivity”.
In the case of “QVQLVESGGGLVQAGGSLRLSCAASGRVFSTNAMGWYRQAPGKERELVAGINSGGSTNYADSVKGRFTISRDNAKNTVSLQMNSLKPEDTAVYYCNATLRVESWYVHYGVDYDYWGQGTQVTVSS”, the “polyreactivity (PSR sort gate)” value is reported as “low polyreactivity”.
In the case of “QVQLVESGGGLVQAGGSLRLSCAASGSFIVQNSMGWYRQAPAKERELVAANTRGGSTYYADSVKGRFTISRDNAKNTVYLQMNSLKPEDTAVYYCAAYWYYYLMDYWGQGTQVTVSS”, the “polyreactivity (PSR sort gate)” value is reported as “low polyreactivity”.
With “QVQLVESGGGLVQAGGSLRLSCAASGSIFAAYTMGWYRQAPGKERELVAAISVSTVSTYYADSVKGRFTISRDNAKNTVYLLMNSLKPEDTAVYYCNAVATDSYPEKDEHDSWGQGTQVTVSS” the “polyreactivity (PSR sort gate)” value was “low polyreactivity”.
With “QVQLVESGGGLVQAGGSLRLSCAASGSIFACYAMGRYRQAPGKERELVATITWSGGSTYYADSVKGRFTISRDNAKNTVYLQMNSLKPEDTAVYYCAAEVVGIWYDLWYQGDYWGQGTQVTVSS” the “polyreactivity (PSR sort gate)” value was “low polyreactivity”.
For “QVQLVESGGGLVQAGGSLRLSCAASGSIFAGNAMGWYRQAPGKEREFVAAITWSGGSTYYADSVKGRFTISRDNAKNTVYLQMNSLKPEDTAVYYCAARAYKRKTYYYWGQGTQVTVSS”, the “polyreactivity (PSR sort gate)” value was “high polyreactivity”.
In the case of “QVQLVESGGGLVQAGGSLRLSCAASGSIFAGNAMGWYRQSPGKERELVAAITWRSGRTYYADSVKGRFTISRDNAKNTVYLEMNSLKPEDTAVYYCARGRYGYTAPFRRWYFRYDYWGQGTQVTVSS”, the “polyreactivity (PSR sort gate)” value is reported as “high polyreactivity”.
With “QVQLVESGGGLVQAGGSLRLSCAASGSIFAGYAMGWYRQAPGKDRELVAAINWTGDSTYYADSVKGRFTNSRDNAKNTVYLQMNSLKQEDTAVYYCAAIRRQKGLWDYYYWGQGTQVTVSS” the “polyreactivity (PSR sort gate)” value was “low polyreactivity”.
In the case of “QVQLVESGGGLVQAGGSLRLSCAASGSIFAGYAMGWYRQAPGKERELVAAISKSAGSTYYADSVKGRFTISRDNAKNTVYLQMNSLKAEDTAVYYCAARTFNTYPSYYYWGQGTQVTVSS”, the “polyreactivity (PSR sort gate)” value is reported as “high polyreactivity”.
With “QVQLVESGGGLVQAGGSLRLSCAASGSIFAGYAMGWYRQAPGKERELVAAISRRGGRTYYADSVKGRFTISRDNAKNTVYLQMNSLKPEDTAVYYCARRVDYISSKYGYWGQGTQVTVSS” the “polyreactivity (PSR sort gate)” value was “high polyreactivity”.
With “QVQLVESGGGLVQAGGSLRLSCAASGSIFAGYAMGWYRQAPGKERELVATITSGGSTNYADSVKGRFTISRDNAKNTVYLQMNSLKPEDTAVYYCAADVEDSIPSSYTGGEYDYWGQGTQGTVSS” the “polyreactivity (PSR sort gate)” value was “low polyreactivity”.
In the case of “QVQLVESGGGLVQAGGSLRLSCAASGSIFAHNAMGWYRKAPGKERELVAAISSGGSTNYADSVKGRFTISRDNAKNTVYLQMISLKPEDTAVYYCAAVQYAPKWWGEYDYWGQGTQVTVSS”, the “polyreactivity (PSR sort gate)” value is reported as “low polyreactivity”.
In the case of “QVQLVESGGGLVQAGGSLRLSCAASGSIFAHYTMGWYRQAPGKERELVAVISRSGARTYYADSVKGRFTISRDNAKNTVYLQMNSLKPEDTAVYYCAATWGSVQKGTYYYWGQGTQVTVSS”, the “polyreactivity (PSR sort gate)” value is reported as “low polyreactivity”.
For “QVQLVESGGGLVQAGGSLRLSCAASGSIFAINAMGLYRQAPGKERELVARISWSGGRTYYADSVKGRFTISRDNAKNSVYLQMNSLKPEVTAVYYCAARYYWGQVTQVTVSS”, the “polyreactivity (PSR sort gate)” value was “high polyreactivity”.
With “QVQLVESGGGLVQAGGSLRLSCAASGSIFAINVMGWYRQAPGKEREFVAAISVRSGSTYYADSVKGRFTISRDNAKNTVYLQMNSLKPEDTAVYYCARDSYYIGRWLYYWGQGTQVTVSS” the “polyreactivity (PSR sort gate)” value was “high polyreactivity”.
For “QVQLVESGGGLVQAGGSLRLSCAASGSIFAIYVMGWYRQAPGKERELVAAITWSGGSTYYADSVKGRFTISRDNAKNTVDLQMNSLKPEDTAVYYCAARVLRVRTVTTTWGQGTQVTLSS”, the “polyreactivity (PSR sort gate)” value was “high polyreactivity”.
For “QVQLVESGGGLVQAGGSLRLSCAASGSIFAKNAMGWYRPAPGTERELVAGIDFSGGSTYYADSVKGRFTISGDNAKNTVYLQMNSLKAEDTAVYYCAADWAYKYELDYWGQGNQVTVSS”, the “polyreactivity (PSR sort gate)” value was “low polyreactivity”.
For “QVQLVESGGGLVQAGGSLRLSCAASGSIFAKNAMGWYRQAPGKERELVAAIDLNGGSTYYADSVKGRFTISRDNAKNTVYLQMNSLKPEDTAVYYCADYYGHSSVIRSSPEYDSWGQGTQVTVSS”, the “polyreactivity (PSR sort gate)” value was “low polyreactivity”.
For “QVQLVESGGGLVQAGGSLRLSCAASGSIFAKYYARGWYRQAPVKERELVAAITSGGITNYADSVKGRFTISRDNAKNSVYLQMNSLKPEDTAVYYCAARKWLSAFDYWGQGTQVTVSS”, the “polyreactivity (PSR sort gate)” value was “low polyreactivity”.
With “QVQLVESGGGLVQAGGSLRLSCAASGSIFALYTMGWYRQAPWKERELVAGIRTGRSTNYADSVKGRFTISRDNAKNTVYLQMNSLKPEDTAVYYDYWGQGTQVTVSS” the “polyreactivity (PSR sort gate)” value was “low polyreactivity”.
In the case of “QVQLVESGGGLVQAGGSLRLSCAASGSIFANAMGWYRQAHGKERELVAAISFSGGRTFYADSVKGRFTISRDNAKNTVYLQMNSLKPEDTAVYYCAKGKISSRSGIYNYWGQGTQVTVSS”, the “polyreactivity (PSR sort gate)” value is reported as “high polyreactivity”.
In the case of “QVQLVESGGGLVQAGGSLRLSCAASGSIFANNAMGWYRQAPGKERELVAAISSSGGSTYYADSVKGRFTISRDNAKNTVYLQMNSLKPEDTAVYYCAARFYYGRRYSTSYDYWGQGTQVTVSS”, the “polyreactivity (PSR sort gate)” value is reported as “high polyreactivity”.
For “QVQLVESGGGLVQAGGSLRLSCAASGSIFANYAMGWYRQAPGKERELVAAISKRGGSTNYADSVKGRFTISRDNAKNTVYLQMISLKPEDTAVYYCNVKPGSRRVLAAAYGYWGQGTKVTVSS”, the “polyreactivity (PSR sort gate)” value was “low polyreactivity”.
In the case of “QVQLVESGGGLVQAGGSLRLSCAASGSIFAPYAMGLYRQAPGKERELVAAIRSSGGSTHYADSVKGRFTISRDNAKNTVYLQMNSLKPEDTAVYYCARSYGWYRWAGYDYWGQGTQVTVSS”, the “polyreactivity (PSR sort gate)” value is reported as “high polyreactivity”.
